# Results taken from patent publication US20250320468A1, “New Microbial Diamine Oxidase Derived from Yarrowia Lipolytica for the Degradation of Biogenic Amines” (UNIVERSITÄT HOHENHEIM, priority 2021, published 2025).
# Values joined by “and” are separate entries in the source; they are usually repeats but may differ in a detail not shown here. Equal entries are not always repeated.
# B1: Yarrowia lipolytica PO1f diamine oxidase-1 (DAO-1), wild type, SEQ ID NO: 1 (Yarrowia lipolytica CLIB122) (protein)
# chain: MTPHPFDQLSVQEMESVVRVVKSNHSGKSLHLKSIGTEEPPKALMAPFLAAKRAGKNPVPPPRIAHVIYYVLEDKLVNQCWVDVPSAKVVKSEVLKKGIHPPIDPWEANEAFEAAFDHPLVKDAIKKCGVEHLIDNLTIDGWMYGCDSEIDMPRYLQMLVYCRDPKTNHQDSNMYAFPVPFVPVYDVLEKKLVRVDYCATGGDDDDAAVEGVGNYDTRPEGKNCIEHCVTNDYLPELQDKMRTDLKPYNVLQPEGPSYHIDSDGYINWQKWHFKVGFTPREGLVIHDVHYDGRSTFYRLSMSEMAVPYADPRPPLHRKMAFDFGDCGGGKCANELTLGCDCLGTIRYFDGNVCDPEGNVFTRKNVICMHEQDDGIGWKHTNYRTDVVAITRRRILVLQTILTVGNYEYIFAWHFDQSAGIQLEIRATGIVSTQLIDAGKKSKFGTIVSPGVMAASHQHIFNVRMDPAIDGHQNTVVVNDTVALPWDAKNPHGIAFENTKTPIEKSCYLDSDIQKNRYLKICNENKINPISGNPVGYKIGGLATAMLYAQPGSVSRNRAAFATHHYWVTKYKDQELFAGGVWTNQSANEVGGVQDAVARNENVRNDDVVLWHSFGLTHHPRVEDFPVMPCEIMKIHLSPNDFFTGNPSVDVPKSNQTFNRSVEVKDCRSCKI
# How the values were obtained:
# [1] = DAO activity determination, colorimetric DA-67 enzyme assay (specific / total DAO activity); type: biochemical
# Protocol: The DAO activity was determined using the colorimetric DA-67 enzyme assay, as known in the art.
# [2] = Temperature and pH profile of DAO-1 (DA-67 assay); type: biochemical
# Protocol: The influence of temperature on the enzyme activity of DAO-1 was tested under standard assay conditions, whereby the incubation temperature was varied between 2° and 47° C. The pH-dependency of the DAO-1 activity was investigated under standard assay conditions at 37° C., whereby different buffer systems (50 mM sodium phosphate buffer, pH 6.2-7.8; 50 mM PIPES, pH 7-7.5; 50 mM Tris-HCl, pH 7.2-8.5) were used. The respective buffer system was calibrated with hydrogen peroxide (0.5 to 10 nmol/mL). Analytically pure histamine was used as a substrate for the temperature and pH profiles.
# [3] = pH-stability of DAO-1 in buffer systems at 37° C; type: physicochemical
# Protocol: Consequently, DAO-1 was incubated for 5 h at 37° C. and stirred at 400 rpm in the following buffer systems: 20 mM MES (pH 5.5), 20 mM sodium phosphate buffer (pH 6.2, 7.0, 7.2, 7.8, 8.0), 20 mM PIPES (pH 7.0, 7.2, 7.5) and 20 mM Tris-HCl (pH 6.8, 7.5, 8.2). Afterwards, the residual enzyme activity of DAO-1 was determined under standard assay conditions and compared to the DAO-1 activity applied initially.
# [4] = Michaelis-Menten kinetics of DAO-1 in PIPES buffer; type: biochemical; details: read-out: Km for histamine; PIPES buffer 25 mM pH 7.2, 37° C
# Description: Kinetic investigations were done within the initial reaction velocity.
# [5] = Substrate selectivity of DAO-1 (DA-67 assay), histamine; type: biochemical
# Protocol: (§1) The amino acids L-tryptophan, L-lysine, L-histidine, and L-arginine were also tested.
# [6] = Substrate selectivity of DAO-1 (DA-67 assay), tyramine; type: biochemical; details: 100% = 10 mM histamine
# Protocol: as §1
# [7] = Substrate selectivity of DAO-1 (DA-67 assay), putrescine; type: biochemical; details: 100% = 10 mM histamine
# Protocol: as §1
# [8] = Substrate selectivity of DAO-1 (DA-67 assay), cadaverine; type: biochemical; details: 100% = 10 mM histamine
# Protocol: as §1
# [9] = Substrate selectivity of DAO-1 (DA-67 assay), agmatine; type: biochemical; details: 100% = 10 mM histamine
# Protocol: as §1
# [10] = Substrate selectivity of DAO-1 (DA-67 assay), spermidine; type: biochemical; details: 100% = 10 mM histamine
# Protocol: as §1
# [11] = Substrate selectivity of DAO-1 (DA-67 assay), tryptamine; type: biochemical; details: substrate tryptamine 1 mM; 100% = 10 mM histamine
# Protocol: as §1
# [12] = Substrate selectivity of DAO-1 (DA-67 assay), amino acids; type: biochemical; details: L-tryptophan, L-lysine, L-histidine, L-arginine at 1, 10 and 50 mM
# Protocol: as §1
# [13] = Histamine bioconversion with DAO-1 in PIPES buffer with simulated food matrix (RP-HPLC); type: biochemical; details: for histamine concentration after bioconversion: 0.1 nkat/mL DAO-1, 5 h
# Protocol: An amount of 5 g/L BSA and 25 g/L sucrose were added to the approach to simulate a food matrix. Additionally, catalase was added (30 nkat/mL) to remove the hydrogen peroxide. The experiment was started by the addition of 0.1 nkat/mL DAO-1 activity.
# [14] = Stability of DAO-1 in simulated intestinal fluid (SIF) with and without food matrices; type: in vitro ADME
# Protocol: The stability of DAO-1 was tested in a simulated intestinal fluid (SIF) with and without the addition of simulated food matrices. Therefore, pancreatin-containing SIF was prepared as described in the United States Pharmacopeia (USP42). Different food-matrix stock solutions (4× concentrated) were prepared as follows: 200 g/L bovine serum albumin (BSA) and 100 g/L sucrose (=food-matrix 1), 100 g/L BSA, 100 g/L whey protein isolate (WPI) and 200 g/L sucrose (=food-matrix 2) and BSA, WPI, sodium-caseinate each at 66.68 g/L and 200 g/L sucrose (=food-matrix 3). The pH of each stock solution was adjusted to 6.8 with 1 M NaOH. The freshly prepared 2× concentrated SIF, the food-matrix stock solutions as well as DAO-1 (desalted against H2Odd using PD MidiTrap G-25 columns; GE Healthcare, Chicago, USA) were individually incubated for 5 min in a thermoshaker at 37° C. Subsequently, 500 μL of 2× concentrated SIF, 250 μL of DAO-1 and 250 μL of the food-matrix stock solutions were combined and incubated at 37° C., 500 rpm in a thermoshaker. In order to test the stability of DAO-1 without the presence of stabilizing compounds, H2Odd was added instead of the food-matrix stock solution. Immediately after combining the solutions, a sample of 100 μL was taken and used for the DAO-1 activity determination using the DA-67 assay.
# [15] = substrate: NCCc1c[nH]cn1; assay: purified protein, by the assay type
# [16] = bioreactor cultivation, crude extract
# [17] = other: apparent, histamine 0.5-50 mM, PIPES buffer (25 mM; pH 7.2), 37° C., pH 7.2
molecule,measurement,setting,value
B1,increase of specific DAO-1 activity compared to the recent work,[1]; 5 L scale purified preparation,3 fold
same,specific DAO-1 activity,"[1]; 5 L scale, stirred media mill, ammonium sulfate precipitation and HIC",15 μkat/gProtein
same,specific DAO-1 activity of crude extract relative to partially purified porcine DAO,[1]; 1301 vs 81 nkat/gProtein,around 16 times
same,specific DAO-1 activity,"[1]; DAO-1 produced in Komagataella phaffii, fed-batch bioreactor",2500 nkat/gProtein
same,specific DAO-1 activity relative to specific DAO activity obtained from porcine kidney,[1]; K. phaffii DAO-1 after assumed 7.2-fold purification,more than 200 fold
same,specific DAO-1 activity,[1]; after (NH4)2SO4 precipitation and hydrophobic interaction chromatography,4738±31 nkat/gProtein
same,specific DAO-1 activity,"[1]; after cell disruption (high-pressure homogenizer) of 10 g wet yeast biomass, before purification",660±28 nkat/gProtein
same,increase in specific DAO activity compared with extracted and purified DAO from porcine kidney,[1]; after chromatographic purification,~60 fold
same,increase in specific DAO activity compared with DAO extraction from porcine kidney,[1]; [16],145 fold
same,increase in specific DAO activity compared with native DAO-1 production in Y. lipolytica PO1f,[1]; [16],93 fold
same,specific DAO-1 activity,"[1]; crude extract, bioreactor cultivation of Y. lipolytica PO1f_axp_dao-1, final (96 h)",1301±54.2 nkat/gProtein
same,relative DAO-1 activity,"[2]; 42° C, relative to maximum at 40° C",76±1%
same,relative DAO-1 activity,"[2]; 45° C, relative to maximum at 40° C",31.7±1%
same,DAO-1 activity compared to the maximal activity in Tris-HCl at pH 7.2,[2]; PIPES buffer,92.2±3.9%
same,temperature of maximal DAO-1 activity,"[2]; PIPES buffer 25 mM pH 7.2, histamine substrate",40 °C
same,pH of maximal DAO activity,"[2]; Tris-HCl buffer (50 mM), 37° C, histamine substrate",7.2
same,Maximal DAO-1 activity (100%),[2]; pH/buffer profile at 37° C (FIG. 8),1.84±0.03 nkat/mL
same,Maximal DAO-1 activity (100%),"[2]; temperature profile, PIPES 25 mM pH 7.2 (FIG. 7)",1.88±0.01 nkat/mL
same,relative DAO-1 activity,[2]; temperature range between 3° and 42° C,greater than 50%
same,residual DAO-1 activity,"[3]; 37° C, 5 h, pH range from 6.2 to 7.5",more than 60%
same,residual DAO-1 activity,"[3]; 37° C, 24 h",53.7±1.2%
same,residual DAO-1 activity,"[3]; PIPES buffer (20 mM) pH 7.0, 37° C, 5 h",89.5±0.8%
same,Km,[4],2.3 mM
same,DAO-1 activity [%],"[5]; substrate histamine 1 mM, 100% = 10 mM histamine",45.1 ± 0.7%
same,DAO-1 activity [%],"[5]; substrate histamine 10 mM, reference 100%",100 ± 1.5%
same,DAO-1 activity [%],"[5]; substrate histamine 50 mM, 100% = 10 mM histamine",74.4 ± 1.1%
same,DAO-1 activity [%],[6]; substrate tyramine 1 mM,303.9 ± 4.4%
same,DAO-1 activity [%],[6]; substrate tyramine 10 mM,246.8 ± 3.6%
same,DAO-1 activity [%],[6]; substrate tyramine 50 mM,66.4 ± 1.0%
same,DAO-1 activity [%],[7]; substrate putrescine 1 mM,29.8 ± 0.4%
same,DAO-1 activity [%],[7]; substrate putrescine 10 mM,92.9 ± 1.4%
same,DAO-1 activity [%],[7]; substrate putrescine 50 mM,77.9 ± 1.1%
same,DAO-1 activity [%],[8]; substrate cadaverine 1 mM,29.6 ± 0.4%
same,DAO-1 activity [%],[8]; substrate cadaverine 10 mM,87.3 ± 1.3%
same,DAO-1 activity [%],[8]; substrate cadaverine 50 mM,64.5 ± 1.0%
same,DAO-1 activity [%],[9]; substrate agmatine 1 mM,31 ± 1.1%
same,DAO-1 activity [%],[9]; substrate agmatine 10 mM,30.6 ± 2.7%
same,DAO-1 activity [%],[9]; substrate agmatine 50 mM,7.4 ± 2.3%
same,DAO-1 activity [%],[10]; substrate spermidine 1 mM,2.1 ± 1.6%
same,DAO-1 activity [%],[10]; substrate spermidine 10 mM,3.8 ± 0.9%
same,DAO-1 activity [%],[10]; substrate spermidine 50 mM,2.1 ± 1.3%
same,DAO-1 activity [%],[11],166.1 ± 0.8%
same,DAO-1 activity towards amino acids,[12],did not show any activity
same,residual activity of DAO-1 after bioconversion,"[13]; after 5 h bioconversion at 37° C, determined by RP-HPLC",57.4±1.3%
same,histamine concentration at start of stagnation,[13]; around 4 h,43.5±0.76 mg/L and 0.39±0.01 mM
same,histamine concentration after bioconversion,"[13]; initial 1.35 mM, 37° C",0.34 ± 0.01 mM
same,histamine concentration after bioconversion,"[13]; initial 150 mg/L, 37° C",37.4±0.65 mg/L and 37.4±+0.65 mg/L
same,remaining histamine relative to initial (100%),"[13]; initial 150 mg/L, 5 hours, 37° C",25±1.7%
same,half-life period,"[14]; food-matrix SIF 1 (50 g/L BSA, 25 g/L sucrose), 37° C",around 15 min
same,half-life period,"[14]; food-matrix SIF 2 (25 g/L BSA, 25 g/L WPI, 50 g/L sucrose), 37° C",around 30 min
same,initially applied DAO-1 activity available over 90 min,"[14]; food-matrix SIF 3, 37° C",around 43%
same,residual DAO-1 activity,"[14]; food-matrix SIF 3, 90 min, 37° C",8±0.1%
same,half-life period,"[14]; pure SIF (pancreatin), 37° C",less than 5 min
same,Km,[15]; [17],2.3 ± 0.2 mM
same,Vmax,[15]; [17],9.09±0.37 nkat/mg
same,Km,"[15]; other: hydrolyzed food-matrix SIF 3 (pancreatin, 90 min at 37° C.), pH 6.8, histamine 1.56-50 mM, pH 6.8",4.2 ± 0.5 mM
